Results taken from patent US20100061978A1 (UNIVERSITY OF BRITISH COLUMBIA, published 2010).

Target: T1, c-kit, endogenous in FDC-P1 cells (mouse, UniProt P05532 25-979)
T1 construct: whole, on cells
Test: co-immunoprecipitation with anti-CXCR4 from FDC-P1 whole cell lysates

T1 sequence (P05532 25-979): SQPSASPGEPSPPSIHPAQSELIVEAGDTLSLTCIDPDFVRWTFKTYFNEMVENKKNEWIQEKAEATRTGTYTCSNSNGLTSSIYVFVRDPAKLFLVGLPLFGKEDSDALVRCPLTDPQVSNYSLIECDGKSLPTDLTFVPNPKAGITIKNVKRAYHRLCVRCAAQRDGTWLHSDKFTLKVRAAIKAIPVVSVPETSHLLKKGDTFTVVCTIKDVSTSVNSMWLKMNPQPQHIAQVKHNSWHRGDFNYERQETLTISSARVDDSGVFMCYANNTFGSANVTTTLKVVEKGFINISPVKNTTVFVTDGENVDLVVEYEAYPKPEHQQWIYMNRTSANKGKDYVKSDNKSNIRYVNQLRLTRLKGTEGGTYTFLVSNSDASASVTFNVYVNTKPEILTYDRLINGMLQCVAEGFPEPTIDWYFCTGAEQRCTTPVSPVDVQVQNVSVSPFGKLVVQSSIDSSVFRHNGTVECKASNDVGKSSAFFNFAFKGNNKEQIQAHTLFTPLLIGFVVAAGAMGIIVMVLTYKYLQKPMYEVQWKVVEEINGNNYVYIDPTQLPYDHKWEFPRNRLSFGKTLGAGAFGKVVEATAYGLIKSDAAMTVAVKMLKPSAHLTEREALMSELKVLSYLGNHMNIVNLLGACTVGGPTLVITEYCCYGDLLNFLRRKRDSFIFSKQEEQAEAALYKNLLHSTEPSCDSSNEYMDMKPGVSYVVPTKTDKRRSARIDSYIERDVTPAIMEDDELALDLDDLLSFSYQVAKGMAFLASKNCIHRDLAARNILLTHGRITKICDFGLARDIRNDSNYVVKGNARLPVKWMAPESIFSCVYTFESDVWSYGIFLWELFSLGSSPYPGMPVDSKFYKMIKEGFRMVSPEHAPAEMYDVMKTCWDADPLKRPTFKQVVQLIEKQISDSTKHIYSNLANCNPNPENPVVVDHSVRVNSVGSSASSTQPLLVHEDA

B1: CXCR4, endogenous in FDC-P1 cells (receptor, mouse, UniProt P70658 1-359, looked up)
chain: MEPISVSIYTSDNYSEEVGSGDYDSNKEPCFRDENVHFNRIFLPTIYFIIFLTGIVGNGLVILVMGYQKKLRSMTDKYRLHLSVADLLFVITLPFWAVDAMADWYFGKFLCKAVHIIYTVNLYSSVLILAFISLDRYLAIVHATNSQRPRKLLAEKAVYVGVWIPALLLTIPDFIFADVSQGDISQGDDRYICDRLYPDSLWMVVFQFQHIMVGLILPGIVILSCYCIIISKLSHSKGHQKRKALKTTVILILAFFACWLPYYVGISIDSFILLGVIKQGCDFESIVHKWISITEALAFFHCCLNPILYAFLGAKFKSSAQHALNSMSRGSSLKILSKGKRGGHSSVSTESESSSFHSS
notes: whole, on cells; Immunoprecipitated with anti-CXCR4 from whole cell lysates in the co-immunoprecipitation
binding result: no binding
